Columns and labels:
[1] = molecular target: whole bacterial cells of P. gingivalis (Porphyromonas gingivalis)
[2] = molecular target: T1, recombinant GST-gingipain rGP-1 fusion protein; experiment: ELISA, wells coated with rGP-1 and probed with varying concentrations of KB001
T1 construct: also called GST-Gp; GST-Gingipain recombinant protein

B1: KB-001 mouse monoclonal antibody (antibody, V domains shown)
VH: EVQLKQSGPGLVAPSQSLSITCTVSGFSLSIYSVHWVRQPPGKGLEWLGMIWGGGSSDYNSALKSRLSISKDNSKSQVFLKMNSLQTDDTAMYYCARNGNFYAMDYWGQGTSVTVSS
VL: QIVLTQSPAIMSASLGERVTMTCTASSSVSSSFLHWYQQKPGSSPQLWIYSTSNLASGVPARFSGSGSGTSYSLTISSMEAEDAATYYCHQYHHSPYIYTFGGGTKLEIKR
notes: also called Pg/gingipain antibody
Kd [1]: 11.4 nM | binding result [2]: binds
